Experimental data reported in PMC2603183.
pKd: −log10 of the molar value.

Legend:
[1] = target: CHIR-AB1 extracellular domain (chicken); test: SPR
[2] = target: CHIR-AB1 extracellular domain (chicken); test: AUC
[3] = target: chicken IgY (chicken); test: SPR
[4] = target: FcY (CH3-CH4 domains of chicken IgY) (chicken); test: SEC

| pKd [1] | microscopic KD, binding of the first CHIR-AB1 to IgY (bivalent analyte model) [1] [µM] | microscopic KD, binding of the second CHIR-AB1 to IgY (bivalent analyte model) [1] [µM] | stoichiometry N [2] | pKd [3] | stoichiometry N [4] | Substance |
| --- | --- | --- | --- | --- | --- | --- |
| 7.77 | 0.403 | 3.9 | – | – | – | chicken IgY (natural protein) |
| – | – | – | 2 | 6.10 | 1.83 | CHIR-AB1 extracellular domain (receptor) |
